PMC5340040

Columns and labels:
[1] = molecular target: MgF-actin (rabbit skeletal muscle actin, filament) (rabbit) (UniProt P68135)
[2] = molecular target: MgF-actin (rabbit skeletal muscle actin, filament) (rabbit) (UniProt P68135); remark: listed apart in the source
[3] = molecular target: MgF-actin (rabbit skeletal muscle actin, filament) (rabbit) (UniProt P68135); remark: listed apart in the source

Sequence of Histatin-3 (peptide) (P15516 20-51): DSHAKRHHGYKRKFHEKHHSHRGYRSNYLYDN

- bundling of 8 μM F-actin (low speed centrifugation): histatin concentration for 50% bundling [1]: 5 µM
- NaCl concentration (0-200 mM) at which bundles of 4 μM F-actin induced by 16 μM histatin are largely dissociated (low speed centrifugation) [2]: 100 mM
- decrease of the fluorescence emission at 581 nm of 5 μM TRC-F-actin (TRC on Gln41) by 8 μM histatin-3 [3]: 22.3%
Substance: Histatin-3 (peptide)
